Experimental data reported in patent US9976134B2, “Thermolysin variants” (Danisco US Inc., priority 2007, dated 2018).
Changes are numbered by the printed parent chain. In names and notes the source's numbering stands.

B1: I156E: single-substitution thermolysin variant (SEQ ID NO:3 numbering) (protein, listed as Geobacillus caldoproteolyticus)
chain: ITGTSTVGVGRGVLGDQKNINTTYSTYYYLQDNTRGNGIFTYDAKYRTTLPGSLWADADNQFFASYDAPAVDAHYYAGVTYDYYKNVHNRLSYDGNNAAIRSSVHYSQGYNNAFWNGSQMVYGDGDGQTFIPLSGGIDVVAHELTHAVTDYTAGLEYQNESGAINEAISDIFGTLVEFYANKNPDWEIGEDVYTPGISGDSLRSMSDPAKYGDPDHYSKRYTGTQDNGGVHINSGIINKAAYLISQGGTHYGVSVVGIGRDKLGKIFYRALTQYLTPTSNFSQLRAAAVQSATDLYGSTSQEVASVKQAFDAVGVK
B2: N280I: single-substitution thermolysin variant (SEQ ID NO:3 numbering) (protein, listed as Geobacillus caldoproteolyticus)
chain: B1 chain with E156I, N280I
B3: T006A: single-substitution thermolysin variant (SEQ ID NO:3 numbering) (protein, listed as Geobacillus caldoproteolyticus)
chain: B1 chain with T6A, E156I
B4: T278C: single-substitution thermolysin variant (SEQ ID NO:3 numbering) (protein, listed as Geobacillus caldoproteolyticus)
chain: B1 chain with E156I, T278C
B5: A058C: single-substitution thermolysin variant (SEQ ID NO:3 numbering) (protein, listed as Geobacillus caldoproteolyticus)
chain: B1 chain with A58C, E156I
B6: T278N: single-substitution thermolysin variant (SEQ ID NO:3 numbering) (protein, listed as Geobacillus caldoproteolyticus)
chain: B1 chain with E156I, T278N
B7: S065W: single-substitution thermolysin variant (SEQ ID NO:3 numbering) (protein, listed as Geobacillus caldoproteolyticus)
chain: B1 chain with S65W, E156I
B8: S065D: single-substitution thermolysin variant (SEQ ID NO:3 numbering) (protein, listed as Geobacillus caldoproteolyticus)
chain: B1 chain with S65D, E156I
B9: Q273A: single-substitution thermolysin variant (SEQ ID NO:3 numbering) (protein, listed as Geobacillus caldoproteolyticus)
chain: B1 chain with E156I, Q273A
B10: N280L: single-substitution thermolysin variant (SEQ ID NO:3 numbering) (protein, listed as Geobacillus caldoproteolyticus)
chain: B1 chain with E156I, N280L
B11: A058E: single-substitution thermolysin variant (SEQ ID NO:3 numbering) (protein, listed as Geobacillus caldoproteolyticus)
chain: B1 chain with A58E, E156I
B12: N280M: single-substitution thermolysin variant (SEQ ID NO:3 numbering) (protein, listed as Geobacillus caldoproteolyticus)
chain: B1 chain with E156I, N280M
B13: Q061M: single-substitution thermolysin variant (SEQ ID NO:3 numbering) (protein, listed as Geobacillus caldoproteolyticus)
chain: B1 chain with Q61M, E156I
B14: T278H: single-substitution thermolysin variant (SEQ ID NO:3 numbering) (protein, listed as Geobacillus caldoproteolyticus)
chain: B1 chain with E156I, T278H
B15: Q273N: single-substitution thermolysin variant (SEQ ID NO:3 numbering) (protein, listed as Geobacillus caldoproteolyticus)
chain: B1 chain with E156I, Q273N
B16: Q061E: single-substitution thermolysin variant (SEQ ID NO:3 numbering) (protein, listed as Geobacillus caldoproteolyticus)
chain: B1 chain with Q61E, E156I
B17: N280S: single-substitution thermolysin variant (SEQ ID NO:3 numbering) (protein, listed as Geobacillus caldoproteolyticus)
chain: B1 chain with E156I, N280S
B18: Q273W: single-substitution thermolysin variant (SEQ ID NO:3 numbering) (protein, listed as Geobacillus caldoproteolyticus)
chain: B1 chain with E156I, Q273W
B19: T278Y: single-substitution thermolysin variant (SEQ ID NO:3 numbering) (protein, listed as Geobacillus caldoproteolyticus)
chain: B1 chain with E156I, T278Y
B20: N280E: single-substitution thermolysin variant (SEQ ID NO:3 numbering) (protein, listed as Geobacillus caldoproteolyticus)
chain: B1 chain with E156I, N280E
B21: A056E: single-substitution thermolysin variant (SEQ ID NO:3 numbering) (protein, listed as Geobacillus caldoproteolyticus)
chain: B1 chain with A56E, E156I
B22: T278S: single-substitution thermolysin variant (SEQ ID NO:3 numbering) (protein, listed as Geobacillus caldoproteolyticus)
chain: B1 chain with E156I, T278S
B23: S065P: single-substitution thermolysin variant (SEQ ID NO:3 numbering) (protein, listed as Geobacillus caldoproteolyticus)
chain: B1 chain with S65P, E156I
B24: Q273T: single-substitution thermolysin variant (SEQ ID NO:3 numbering) (protein, listed as Geobacillus caldoproteolyticus)
chain: B1 chain with E156I, Q273T

What was measured:
[1] = Stability assay in 25% TIDE 2X detergent with DTPA (residual Abz-AGLA-Nba protease activity); format: physicochemical; conditions: 60 min at 32°C; variant residual AGLA activity divided by wild-type residual activity
Experimental: (§1) The stability of thermolysin and variants thereof was measured after incubation under defined conditions in the presence of 25% TIDE® 2× detergent. The initial and residual activity was determined.
(§2) MTPs were obtained from Costar (type 9017) and from Greiner (black plate, type 655076). Test Method Unstressed Conditions:
(§3) First, 20 μl thermolysin containing culture supernatant was diluted with 180 μl MES assay buffer. Then, 20 μl diluted supernatant was diluted further with 180 μl MES assay buffer. Subsequently 10 μl of this dilution was transferred into 190 μl AGLA-substrate solution in a pre-warmed plate (Greiner 655076) at 25° C. Any air bubbles present were blown away and the plate was measured according to the AGLA protease assay protocol described below.
(§4) First, 20 μl of culture supernatant was diluted with 180 μl 27.5% TIDE®+detergent solution and placed in the iEMS shaker. The plate covered with a plate seal was incubated for a total of 60 minutes at 32° C. at 900 rpm. In addition, 20 μl of culture supernatant was diluted with 180 μl 27.5% TIDE®−solution and placed in the iEMS shaker. This plate covered with a plate seal was incubated for a total of 180 minutes at 50° C. at 900 rpm.
(§5) Subsequently after the respective incubations, 20 μl of either of these solutions were diluted with 180 μl MES assay buffer and 10 μl of this dilution were diluted with 190 μl AGLA-substrate solution in a pre-warmed plate (Greiner 655076) at 25° C.
(§6) Fluorescence measurements were taken at excitation of 350 nm and emission of 420 nm. The spectrofluorometer software calculated the reaction rates (=slope) of the increase in fluorescence for each well to a linearly regressed line of (milli-) RFU/min. The ratio of the residual and initial AGLA activity was used to express the 25% TIDE® 2× stability as follows: Percentage of residual activity=[slope of stressed]*100/[slope of unstressed]
(§7) For each sample (thermolysin and variants thereof) the performance index was calculated by dividing the residual activity of the variant by the residual activity of thermolysin. The performance index compared the stability of the variant and the standard thermolysin enzyme (e.g., wild type or parental enzyme), determined under the same conditions.
(§8) In these experiments, the liberation of Abz-AG by protease cleavage of Abz-AGLA-Nba was monitored by fluorescence spectrometry (Ex. 350/Em. 420). The rate of appearance of Abz-AG was a measure of proteolytic activity.
(§9) The Abz-AGLA-Nba assay solution was prepared by adding 1 ml of the Abz-AGLA-Nba stock to 19 ml MES substrate buffer and mixed well for at least 2 minutes. Subsequently the thermolysin or variants thereof containing culture supernatants were diluted with MES assay buffer to a concentration of 1-6 μg protein per ml.
(§10) The assay was performed by adding 10 μl of diluted protease solution to each well, followed by the addition of 190 μl Abz-AGLA-Nba assay solution that was pre-equilibrated for at least 15 minutes at 25° C. The solutions were vigorously mixed, and the liberation of Abz-AG by protease cleavage of Abz-AGLA-Nba was monitored by fluorescence spectrometry at 25° C. in kinetic mode with excitation set at 350 nm and emission set at 420 nm. The rate of appearance of Abz-AG was a measure of proteolytic activity in the samples. The protease activity was expressed as RFU (relative fluorescence units·min^−1).
(§11) As described in Example 1, the stability of thermolysin variants was measured by determining the AGLA activity before and after incubation in the presence of TIDE® 2× heavy duty liquid (HDL) detergent at an elevated temperature. The tables contain the relative stability values compared to wild-type thermolysin, which is the quotient of the variant residual activity divided by the wild-type residual activity. A value greater than one indicates higher stability in the presence of detergent. […]

[2] = Stability assay in 25% TIDE 2X detergent without DTPA (residual Abz-AGLA-Nba protease activity); format: physicochemical; conditions: 180 min at 50°C; variant residual AGLA activity divided by wild-type residual activity
Experimental: as §1, §2, §3, §4, §5, §6, §7, §8, §9, §10, §11

Row | Molecule | PI (relative stability), 25% TIDE 2X with DTPA [1] | PI (relative stability), 25% TIDE 2X without DTPA [2]
1 | B1 | 1.58 | 1.09
2 | B2 | 1.16 | –
3 | B3 | 1.01 | –
4 | B4 | 1.05 | –
5 | B5 | – | 1.01
6 | B6 | 1.07 | –
7 | B7 | – | 1.09
8 | B8 | – | 1.20
9 | B9 | 1.03 | –
10 | B10 | 1.21 | –
11 | B11 | – | 1.24
12 | B12 | 1.16 | –
13 | B13 | – | 1.01
14 | B14 | 1.07 | –
15 | B15 | 1.25 | –
16 | B16 | – | 1.05
17 | B17 | 1.19 | –
18 | B18 | 1.05 | –
19 | B19 | 1.05 | –
20 | B20 | 1.13 | –
21 | B21 | – | 1.07
22 | B22 | 1.08 | –
23 | B23 | – | 1.18
24 | B24 | 1.08 | –
